Data reported in patent US20240301031A1 (JIANGSU HENGRUI PHARMACEUTICALS, published 2024).

Legend:
[1] = target: T1, human BAFF (10056-HNCH, Sino biological) (human, UniProt Q9Y275 134-285); test: competition ELISA: biotin-labeled BAFF to coated BAFF-R
T1 construct: Bought protein
Protocol: The blocking activity of the antibodies and the fusion proteins for receptors and ligands such as BAFF/BAFF-R, BAFF/BCMA, BAFF/TACI, APRIL/BCMA, APRIL/TACI, and p40/IL-12R1 was assayed by the ELISA method. The specific procedures were as follows:
A receptor protein was diluted to 2 μg/mL with PBS at pH 7.4 (BasalMedia, B320) and added to a 96-well microplate (Corning, 3590) at 100 μL/well. The plate was incubated at 4° C. overnight. After the liquid was discarded, 200 μL of 1% Casein blocking solution (Thermo, 37528) was added to each well for blocking, and the plate was incubated at 37° C. for 2 h. After the blocking was completed, the blocking solution was discarded, and the plate was washed 3 times with a PBST buffer (PBS at pH 7.4 containing 0.1% tween-20) for later use. A biotin-labeled ligand protein at a fixed concentration was mixed with the antibody or fusion protein diluted in gradient, pre-incubated at 37° C. for 30 min, and added to a blocked microplate. The plate was incubated at 37° C. for 1.5 h. After the incubation was completed, the plate was washed 3 times with PBST. 100 μL of streptavidin-HRP (Invitrogen, 434323, diluted at a ratio of 1:4000) was added to each well, and the plate was incubated at 37° C. for 1 h. The supernatant was removed, and the plate was washed 3 times with PBST. 100 μL of TMB chromogenic substrate (KPL, 5120-0077) was added to each well, and the plate was incubated at room temperature for 10-15 min. The reaction was stopped by adding 50 μL of 1 M H₂SO₄ to each well. The plate was read for absorbance values at 450 nm on a microplate reader, the curves for the inhibition of the binding of the ligands to the receptors were fitted with software, and the IC₅₀ values were calculated.

[2] = target: T1, human BAFF (10056-HNCH, Sino biological); test: ELISA, BAFF coated, fusion protein titrated
Protocol: The binding activity of the antibodies or fusion proteins for BAFF, APRIL, and IL-12/23 p40 was assayed by the ELISA method (coating an antigen protein). The specific procedures were as follows:
A BAFF (Sino biological, 10056-HNCH), APRIL (R&D Systems, 5860-AP-010/CF), or IL-12/23 p40 (Sino biological, 10052-H08H) protein was diluted to 1 μg/mL with a PBS (BasalMedia, B320) buffer at pH 7.4, and added to a 96-well microplate (Corning, 3590) at 100 μL/well. The plate was incubated at 4° C. overnight. After the liquid was discarded, 300 μL of 5% skim milk (BD, 232100) diluted with PBS was added to each well for blocking, and the plate was incubated at 37° C. for 2 h. After the blocking was completed, the blocking solution was discarded, and the plate was washed 3 times with a PBST buffer (PBS at pH 7.4 containing 0.1% tween-20). 100 μL of test antibody or fusion protein solution diluted in a gradient was added to each well, and the plate was incubated at 37° C. for 1 h. After the incubation was completed, the plate was washed 3 times with PBST. […] The plate was washed 3 times with PBST. 100 μL of TMB chromogenic substrate (KPL, 5120-0077) was added to each well, and the plate was incubated at room temperature for 10-15 min. The reaction was stopped by adding 50 μL of 1 M H₂SO₄ to each well. The plate was read for absorbance values at 450 nm on a microplate reader, the binding curves of the antibodies to an antigen were fitted with software, and the EC₅₀ values were calculated.

| IC50 [1] [nM] | EC50 [2] [nM] | Binder |
| --- | --- | --- |
| 44.7 |  | TACI-1 Fc (Fc fusion, two identical polypeptides) SGLGRSRKGGKSRVDQEERFPQGLWTGVAMRSCPEEQYWDPLLGTCMSCKTICNHQSQRTCAAFCRSLSCRKEQGKFYDHLLRDCISCASICGQHPKQCAYFCENKLRSPVNLPPELRKQRSGEVEQNSDNSGKYQGLEHRGSEASPALPGLKLSADQVALVYSDKTHTCPPCPAPEAEGAPSVFLFPPKPKDTLMISRTPEVTCVVVDVSHEDPEVKFNWYVDGVEVHNAKTKPREEQYNSTYRVVSVLTVLHQDWLNGKEYKCKVSNKALPSSIEKTISKAKGQPREPQVYTLPPSRDELTKNQVSLTCLVKGFYPSDIAVEWESNGQPENNYKTTPPVLDSDGSFFLYSKLTVDKSRWQQGNVFSCSVMHEALHNHYTQKSLSLSPGK |
|  | 0.382 | TACI-9-1Fc (Fc fusion, two identical polypeptides) STSCRKEQGKFYDHLLRDCISCASICGQHPKQCAYFCENKLDKTHTCPPCPAPEAEGAPSVFLFPPKPKDTLMISRTPEVTCVVVDVSHEDPEVKFNWYVDGVEVHNAKTKPREEQYNSTYRVVSVLTVLHQDWLNGKEYKCKVSNKALPSSIEKTISKAKGQPREPQVYTLPPSRDELTKNQVSLTCLVKGFYPSDIAVEWESNGQPENNYKTTPPVLDSDGSFFLYSKLTVDKSRWQQGNVFSCSVMHEALHNHYTQKSLSLSPGK |
|  | 0.469 | TACI-9-4Fc (Fc fusion, two identical polypeptides) SLSCRQEQGKFYDHLLRDCISCASICGQHPKQCAYFCENKLDKTHTCPPCPAPEAEGAPSVFLFPPKPKDTLMISRTPEVTCVVVDVSHEDPEVKFNWYVDGVEVHNAKTKPREEQYNSTYRVVSVLTVLHQDWLNGKEYKCKVSNKALPSSIEKTISKAKGQPREPQVYTLPPSRDELTKNQVSLTCLVKGFYPSDIAVEWESNGQPENNYKTTPPVLDSDGSFFLYSKLTVDKSRWQQGNVFSCSVMHEALHNHYTQKSLSLSPGK |
|  | 0.265 | TACI-9-3Fc (Fc fusion, two identical polypeptides) SLSCREEQGKFYDHLLRDCISCASICGQHPKQCAYFCENKLDKTHTCPPCPAPEAEGAPSVFLFPPKPKDTLMISRTPEVTCVVVDVSHEDPEVKFNWYVDGVEVHNAKTKPREEQYNSTYRVVSVLTVLHQDWLNGKEYKCKVSNKALPSSIEKTISKAKGQPREPQVYTLPPSRDELTKNQVSLTCLVKGFYPSDIAVEWESNGQPENNYKTTPPVLDSDGSFFLYSKLTVDKSRWQQGNVFSCSVMHEALHNHYTQKSLSLSPGK |
|  | 0.279 | TACI-9-2Fc (Fc fusion, two identical polypeptides) SLSCSKEQGKFYDHLLRDCISCASICGQHPKQCAYFCENKLDKTHTCPPCPAPEAEGAPSVFLFPPKPKDTLMISRTPEVTCVVVDVSHEDPEVKFNWYVDGVEVHNAKTKPREEQYNSTYRVVSVLTVLHQDWLNGKEYKCKVSNKALPSSIEKTISKAKGQPREPQVYTLPPSRDELTKNQVSLTCLVKGFYPSDIAVEWESNGQPENNYKTTPPVLDSDGSFFLYSKLTVDKSRWQQGNVFSCSVMHEALHNHYTQKSLSLSPGK |
| 42.9 |  | TACI-2 Fc (Fc fusion, two identical polypeptides) SGLGRSRKGGKSRVDQEERFPQGLWTGVAMRSCPEEQYWDPLLGTCMSCKTICNHQSQRTCAAFCRSLSCRKEQGKFYDHLLRDCISCASICGQHPKQCAYFCENKLRSPVNLPPELRKQRSGEVENNSDNSGDKTHTCPPCPAPEAEGAPSVFLFPPKPKDTLMISRTPEVTCVVVDVSHEDPEVKFNWYVDGVEVHNAKTKPREEQYNSTYRVVSVLTVLHQDWLNGKEYKCKVSNKALPSSIEKTISKAKGQPREPQVYTLPPSRDELTKNQVSLTCLVKGFYPSDIAVEWESNGQPENNYKTTPPVLDSDGSFFLYSKLTVDKSRWQQGNVFSCSVMHEALHNHYTQKSLSLSPGK |
| 33.5 |  | TACI-4 Fc (Fc fusion, two identical polypeptides) GGRSRVDQEERFPQGLWTGVAMRSCPEEQYWDPLLGTCMSCKTICNHQSQRTCAAFCRSLSCRKEQGKFYDHLLRDCISCASICGQHPKQCAYFCENKLRSPVNLPPELRKQRSGEVENNSDNSGKYQGLEHRGSEASPALPGLKLSADQVALVYSDKTHTCPPCPAPEAEGAPSVFLFPPKPKDTLMISRTPEVTCVVVDVSHEDPEVKFNWYVDGVEVHNAKTKPREEQYNSTYRVVSVLTVLHQDWLNGKEYKCKVSNKALPSSIEKTISKAKGQPREPQVYTLPPSRDELTKNQVSLTCLVKGFYPSDIAVEWESNGQPENNYKTTPPVLDSDGSFFLYSKLTVDKSRWQQGNVFSCSVMHEALHNHYTQKSLSLSPGK |
| 18.5 |  | TACI-6 Fc (Fc fusion, two identical polypeptides) GGRSRVDQEERFPQGLWTGVAMRSCPEEQYWDPLLGTCMSCKTICNHQSQRTCAAFCRSLSCRKEQGKFYDHLLRDCISCASICGQHPKQCAYFCENKLRSPVNLPPELRKQRSGEVEDKTHTCPPCPAPEAEGAPSVFLFPPKPKDTLMISRTPEVTCVVVDVSHEDPEVKFNWYVDGVEVHNAKTKPREEQYNSTYRVVSVLTVLHQDWLNGKEYKCKVSNKALPSSIEKTISKAKGQPREPQVYTLPPSRDELTKNQVSLTCLVKGFYPSDIAVEWESNGQPENNYKTTPPVLDSDGSFFLYSKLTVDKSRWQQGNVFSCSVMHEALHNHYTQKSLSLSPGK |
| 22.5 |  | TACI-8 Fc (Fc fusion, two identical polypeptides) SLSCRKEQGKFYDHLLRDCISCASICGQHPKQCAYFCENKLRSPVNLPPELRKQRSGEVENNSDNSGKYQGLEHRGSEASPALPGLKLSADQVALVYSDKTHTCPPCPAPEAEGAPSVFLFPPKPKDTLMISRTPEVTCVVVDVSHEDPEVKFNWYVDGVEVHNAKTKPREEQYNSTYRVVSVLTVLHQDWLNGKEYKCKVSNKALPSSIEKTISKAKGQPREPQVYTLPPSRDELTKNQVSLTCLVKGFYPSDIAVEWESNGQPENNYKTTPPVLDSDGSFFLYSKLTVDKSRWQQGNVFSCSVMHEALHNHYTQKSLSLSPGK |
| 27.9 |  | TACI-7 Fc (Fc fusion, two identical polypeptides) FPQGLWTGVAMRSCPEEQYWDPLLGTCMSCKTICNHQSQRTCAAFCRSLSCRKEQGKFYDHLLRDCISCASICGQHPKQCAYFCENKLRSPVNLPPDKTHTCPPCPAPEAEGAPSVFLFPPKPKDTLMISRTPEVTCVVVDVSHEDPEVKFNWYVDGVEVHNAKTKPREEQYNSTYRVVSVLTVLHQDWLNGKEYKCKVSNKALPSSIEKTISKAKGQPREPQVYTLPPSRDELTKNQVSLTCLVKGFYPSDIAVEWESNGQPENNYKTTPPVLDSDGSFFLYSKLTVDKSRWQQGNVFSCSVMHEALHNHYTQKSLSLSPGK |
| 25.4 |  | TACI-5 Fc (Fc fusion, two identical polypeptides) GGRSRVDQEERFPQGLWTGVAMRSCPEEQYWDPLLGTCMSCKTICNHQSQRTCAAFCRSLSCRKEQGKFYDHLLRDCISCASICGQHPKQCAYFCENKLRSPVNLPPELRKQRSGEVENNSDNSGDKTHTCPPCPAPEAEGAPSVFLFPPKPKDTLMISRTPEVTCVVVDVSHEDPEVKFNWYVDGVEVHNAKTKPREEQYNSTYRVVSVLTVLHQDWLNGKEYKCKVSNKALPSSIEKTISKAKGQPREPQVYTLPPSRDELTKNQVSLTCLVKGFYPSDIAVEWESNGQPENNYKTTPPVLDSDGSFFLYSKLTVDKSRWQQGNVFSCSVMHEALHNHYTQKSLSLSPGK |
| 826 |  | TACI-3 Fc (Fc fusion, two identical polypeptides) SGLGRSRKGGKSRVDQEERFPQGLWTGVAMRSCPEEQYWDPLLGTCMSCKTICNHQSQRTCAAFCRSLSCRKEQGKFYDHLLRDCISCASICGQHPKQCAYFCENKLRSPVNLPPELRKQRSGEVEDKTHTCPPCPAPEAEGAPSVFLFPPKPKDTLMISRTPEVTCVVVDVSHEDPEVKFNWYVDGVEVHNAKTKPREEQYNSTYRVVSVLTVLHQDWLNGKEYKCKVSNKALPSSIEKTISKAKGQPREPQVYTLPPSRDELTKNQVSLTCLVKGFYPSDIAVEWESNGQPENNYKTTPPVLDSDGSFFLYSKLTVDKSRWQQGNVFSCSVMHEALHNHYTQKSLSLSPGK |
